Experimental data taken from patent US20250297215A1, “METHOD FOR PRODUCING MILK LIKE PRODUCTS” (SOCIETE DES PRODUITS NESTLE S.A., priority 2021, published 2025).

What was measured:
[1] = test system: iPSCs derived mammary gland organoids; assay: Flow cytometry of progenitor markers, BMP4 and RA single or combined, 42 days and 31 days protocols; format: cell-based, human; conditions: 20 ng/ml BMP4, 1 μM RA, single or combination, compared to the control condition
Excerpt: In order to generate milk bioactives that closely resemble those found in human breast milk, different methods using bone morphogenetic protein 4 (BMP4) and retinoic acid (RA) in 42 days and 31 days as a shortened time-course protocol were established in a 3D-platform using iPSCs derived mammary gland organoids as a biomimetic model of the human mammary gland (FIG. 9).

[2] = test system: iPS-derived mammary-gland cells; assay: LC-MS/MS targeted proteomic analysis of osteopontin protein secretion; format: cell-based, human; conditions: also detected with control differentiation method
Excerpt: Human osteopontin peptides—GDSVVYGLR and -YPDAVATWLNPDPSQK were specifically detected in the cell culture supernatant by LC-MS/MS (FIG. 10).
Osteopontin protein secretion was detected in the media of cultures of iPS-derived mammary-gland cells using control differentiation method, or with bone morphogenetic protein 4 (BMP4), retinoic acid (RA) and in the combination of the two factors.

[3] = test system: human-induced pluripotent stem cell (hiPSC) line 603; assay: Flow cytometry quantification of mammary gland progenitor markers after BMP4 treatment, 3D-organoid setting; format: cell-based; conditions: 20 ng/ml BMP4, day 0 to day 3, flow cytometry
Protocol: (§1) Methods: The human-induced pluripotent stem cell (hiPSC) line 603 was purchased from Fujifilm Cellular Dynamics, Inc (FCDI) and used for the 3D-differentiaion of mammary gland progenitors. Briefly, 5.5 million dissociated iPSCs were plated in the 6 well-plates (ultra-low attachment) containing 4.5 mL aggregation media using a planar shaker platform (set at 95 RPM). BMP4 (314-BP-050, Bio-Techne AG) at different concentrations was added to the culture media between day 0 and day 3.

[4] = test system: human-induced pluripotent stem cell (hiPSC) line 603; assay: Nanostring RNA expression of lineage markers after BMP4 treatment, 3D-organoid setting; format: cell-based
Protocol: as §1
Results: iPSC cells were tested with different concentrations of BMP4 to induce non-neural ectodermal differentiation (FIG. 6a, b). […] Expression of human TFAP2A and TFAP2C (AP2 Gamma) as predominant non-neural ectodermal markers were increased at day 10 of differentiation using Nanostring analysis compared to the control sample (FIG. 6g-h). Moreover, expression levels of human specific neural ectoderm markers, such as paired box gene 6 (PAX6), orthodenticle homeobox 2 (OTX2) and SRY-box transcription factor 11 (SOX11) were decreased during differentiation (FIG. 6i-k).

[5] = test system: iPSC cells; assay: RNA expression of ESRRA, KRT14 and MUC1 at end-stage of 3D-mammary gland differentiation; format: cell-based, human; conditions: day 30, 33 and 35, compared to the control sample
Protocol: The effect of BMP4 at the end-stage of 3D-mammary gland differentiation of iPSC cells was assessed using estrogen related receptor alpha (ESRRA), Keratin 14 (KRT14) and MUC1 for their expression profiles.

B1: BMP4: bone morphogenetic protein 4 (314-BP-050, Bio-Techne AG), added to the culture media (protein, UniProt P12644 293-408, looked up)
Bone morphogenetic protein 4: SPKHHSQRARKKNKNCRRHSLYVDFSDVGWNDWIVAPPGYQAFYCHGDCPFPLADHLNSTNHAIVQTLVNSVNSSIPKACCVPTELSAISMLYLDEYDKVVLKNYQEMVVEGCGCR
- expression of mammary gland progenitor markers EpCAM, CD49f, MUC1 and GATA3 (induced or maintained) [1]: can induce the expression
- osteopontin protein secretion in culture media [2]: detected
- expression of mammary gland progenitor markers EpCAM (CD326), CD49f, MUC1 (CD227) and GATA3 [3]: significantly induced
- expression of luminal marker KRT18 and osteopontin (OPN) ([4]; RNA expression level): can induce the expression
- expression of human TFAP2A and TFAP2C (non-neural ectodermal markers) ([4]; day 10 of differentiation, compared to the control sample): increased
- expression levels of neural ectoderm markers PAX6, OTX2 and SOX11 ([4]; during differentiation): decreased
- RNA expression levels of ESRRA, KRT14 and MUC1 [5]: increased
